From EP3911180B1, “PAENIBACILLUS WYNNII BETA-GALACTOSIDASE FOR THE PRODUCTION OF LACTOSE-DEPLETED AND GOS-ENRICHTED DAIRY PRODUCTS” (Universität Hohenheim, priority 2019, dated 2020)

Substrate: OC[C@H]1O[C@@H](O[C@H]2[C@H](O)[C@@H](O)C(O)O[C@@H]2CO)[C@H](O)[C@@H](O)[C@H]1O
Test: Determination of KM with lactose as substrate
Type: biochemical, Paenibacillus wynnii
Details: 8 °C
Description: For the substrate solution 400 mM lactose was dissolved in Novo buffer (the composition of which is depicted in Table 4). The beta-galactosidase activity was determined in a thermo shaker in 1.5 mL reaction tubes at 8°C. The enzyme mix and the lactose solution were preincubated at 8 °C for 12 min. To start the enzymatic reaction 100 µL of the enzyme mix were added to 100 µL lactose solution. The reaction was carried out for 5 min at 8 °C. The reaction was stopped by adding 300 µL 1 M HClO4 to the enzyme-substrate-mix. The mix was kept on ice for 5 min before it was centrifuged at 13 000 rcf and 4 °C for 5 min. 160 µL of the supernatant were transferred to 75 µL 2 M KOH to neutralise the solution. The neutralisation step was checked using pH paper and the pH was adjusted if necessary. The solution was kept on ice for another 5 min before it was centrifuged at 13 000 rcf at 4 °C for 5 min. All assays were performed in triplicate. Table 4: Composition of Novo buffer
The kinetic parameters were determined using the natural substrate lactose. The reaction matrices and conditions were chosen in order to simulate conditions in milk systems. The chosen reaction matrices were Novo buffer (cf. Table 4, above) and milk diluted with Novo buffer. The reaction temperature was 8 °C and the pH value was 6.7.
For the determination of the KM values of P. wynnii beta-galactosidase lactose concentrations ranged from 0.76 mM to 97.5 mM. In order to obtain different lactose concentrations in milk, milk was diluted with Novo buffer. […] The enzyme activities were measured under initial reaction velocity conditions of the enzyme. The reaction times for the initial velocity of the enzymes were determined in previous experiments. The kinetic parameter KM was analysed using the Enzyme Kinetics Module in SigmaPlot 12.5 (Systat Software, Inc., San Jose, USA).
In the case of the studies in Novo buffer the enzyme activity decreased again with increasing lactose concentration. […] Table 6: Summary of the determined KM values using the Enzyme Kinetics Module in SigmaPlot 12.5. […]

B1: P. wynnii beta-galactosidase (SEQ ID NO: 1) (Paenibacillus wynnii) (protein)
chain: MRKKLVYSPPTNGYPEWNNNPECFQINRMDAHATWIPFNTTEDALLGDPQSSPNYLSLNGMWKFAYAETPDQRIRNFFEKNYDCSSWAELNVPSHWQMHGYDYPQYTNVRYPWSEREPELKPPFAPTQYNPVGSYVRTFSVPEDWSGKPVFISFQGVESAFYVWLNGELVGYSEDTFTPAEFDLTPYLIPGDNKLAVEVYRWCDASWLEDQDFWRLSGIFRDVYLYTTPEAHIYDFFVRTELDEQYRHAELQLDVKLMDYFERTAEAVIVHAQLYDHDQNAIFDQPLSQTVYFNSASTQTLQFSSSIIDPLKWSAEHPNLYTLVLSLHHVDGELMEAVSCRVGFRTFELKDGLMKINGKRIVFKGVNRHEFSCDTGRSIDVDDMVRDILLMKAHNINAVRTSHYPNQTIWYDLCDQYGLYVIDETNLETHGSWSYGQTDLGGNTVPGSRPEWRANVLDRCNSMLQRDKNHPSIVIWSLGNESFGGDNFVAMHDFLKKEDPSRLVHYEGLFHYRESDVASDIESTMYISPADVEQYALNDPKKPYILCEYSHAMGNSCGGLHLYWEVFEKYDILQGAFIWDWIDQAIRLKQADGSMHMAYGGDFGESPHDGNFCGNGLIFADRSVSPKLYEVKKCYQNVKFEAVDLERGIYRVTNQNLFTDLAEYALAWEVSCNGNPVLKGTVDLAVPAGESAEISVPVVDEPNLQSEGEHVLTFSLQLKKSTLWADAGHEVAWEQFLLPTPQFMAGQDQDSVLTSDRGVIVEEQAGRLTVQAADVSLQFSTSSGYLISMQNKGKELLLEPVRPNFWRAVTDNDLGNKHHERCAVWNTAGAGCTLASFESHKNVDGVTVRAKYTVPTVPISSLILEYRIQENGSIEVFEELSPGMGLPEIPEIGLMFIVEDRLDTVSWYGRGPHENYWDRKTGARLGYFSGSVQDQFVPYIRPQECGNKTDVRFASITGGINGSGFRVDGDPVLELNALPWTPAELEANDHIYKLPASNKTVVRVNYKQMGVGGDNSWGATTHPEFTLPADQTYGFRFTIRMV
other: Novo buffer, pH 6.7, A: evaluation according to Michaelis-Menten, pH 6.7
  Km: 0.34 ± 0.084 mM
other: Novo buffer, pH 6.7, B: evaluation under consideration of substrate inhibition, pH 6.7
  Km: 0.52 ± 0.089 mM
other: milk + Novo buffer
  Km: 0.63 mM
